Starred links: 1 amine or outer side, 2 acyl side, 3 side chain; linkers in the order of their positions; H or OH if unused. Non-standard residues stand in square brackets, D forms with d. *: point of attachment. X4 = ((1S)-1-Carboxy-3-methylbutyl)carbamoyl, CC(C)C[C@H](NC(=O)*)C(=O)O; Ala(piperidin-4-yl) = O=C([C@H](CC1CCN([*:3])CC1)N[*:1])[*:2]; (carboxymethyl)carbamoyl = O=C(O)CNC(=O)*; Arg(Me) = CNC(=N)NCCC[C@H](N)C(=O)O; tBuAla = CC(C)(C)C[C@H](N)C(=O)O; 4Pal = N[C@@H](Cc1ccncc1)C(=O)O; dHyp = O=C(O)[C@H]1C[C@H](O)CN1; Cha = N[C@@H](CC1CCCCC1)C(=O)O; Isonicotinoyl = O=C(c1ccncc1)*; Suc = O=C(CCC(=O)[*:2])[*:1]; Iva = CC[C@](C)(N)C(=O)O; Abu = CC[C@H](N)C(=O)O; Aib = CC(C)(N)C(=O)O
Tests used:
male C57EL/6J mice = assay: 3-Days Continuous Subcutaneous Administration Test-1 (food intake suppressing activity); format: in vivo, mouse; conditions: 0.03 mg/kg/day, subcutaneous Alzet pump, food consumption over 3 days; relative to food intake suppression rate for PYY(3-36) (1 mg/kg/day) taken as 100%
Experimental: (4) Test Method: 3-Days Continuous Subcutaneous Administration Test-1
The food intake suppressing activity of the compound of the present invention was examined by the method described below.
The test compound was dissolved in 50% DMSO so that sustained release would occur at 0.03 mg/kg/day, and the solution was filled in the Alzet Pump (Alzet model: 1003D, sustained release rate: 1 μL/hr, capacity: 100 μL). After the filling, the pump was placed in a 2 mL Eppendorf tube containing 330 μL of physiological saline, and incubated at 37° C. for 2 hours or more. Thereafter, this pump was subcutaneously embedded in the back of each mouse by the method described below. After weighing, each male […] mice at 12-13 weeks of age (25° C., allowed to take food and water ad libitum; 12-hour bright-12-hour dark cycle, lighting turned on at 08:00) was anesthetized with diethyl ether; the skin in the upper back thereof was incised, and the above-mentioned pump was embedded subcutaneously. Thereafter, several drops of penicillin solution (100000 units/mL) were added to the incised part, and the incision was sutured using Michel's surgical needle. This mouse was returned to the rearing cage (reared alone), and given previously weighed food; 3 days later, the amount of remaining food was measured. Food consumption was calculated by subtracting the amount of remaining food after 3 days from the weight of the food given on the day of pump embedding. The food intake suppressing activity of each test compound was expressed as a food intake suppression rate (%) relative to the food intake suppression rate for PYY(3-36) (1 mg/kg/day) taken as 100%.

human Y2 receptor [1] = target: T1, human Y2 receptor (Homo sapiens, UniProt P49146); assay: Receptor Binding Assay (RBA) for Human Y2, [125I]-PYY displacement on hY2R/CHO membrane fraction; conditions: IC50 of test compound/IC50 of PYY(3-36) (PYY(3-36) taken as 1)
T1 construct: expressed in transfected cells; membrane fraction
T1 sequence (P49146 1-381): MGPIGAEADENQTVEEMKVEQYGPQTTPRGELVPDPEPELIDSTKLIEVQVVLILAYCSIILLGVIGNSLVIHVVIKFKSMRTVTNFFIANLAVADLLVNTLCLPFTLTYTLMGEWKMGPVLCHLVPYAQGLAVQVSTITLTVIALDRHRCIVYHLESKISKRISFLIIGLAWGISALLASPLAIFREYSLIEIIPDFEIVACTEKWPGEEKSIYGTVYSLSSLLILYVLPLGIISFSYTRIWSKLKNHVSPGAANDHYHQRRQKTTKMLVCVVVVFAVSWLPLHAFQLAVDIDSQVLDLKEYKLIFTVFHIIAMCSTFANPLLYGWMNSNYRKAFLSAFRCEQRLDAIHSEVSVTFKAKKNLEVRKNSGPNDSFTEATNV
In short: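 Read-out is [125I]-PYY displacement from membranes of CHO/dhfr− cells stably transfected with human Y2R. Membranes were obtained by disrupting cells in a buffer of 10 mM NaHCO3, 5 mM EDTA and protease inhibitors.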

human Y2 receptor [2] = target: T1, human Y2 receptor; assay: Human Y2 Receptor G Protein Binding Assay (GBA), [35S]GTPγS; format: biochemical; conditions: EC50 of test compound/EC50 of PYY(3-36) (PYY3-36 taken as 1), hY2R/CHO membrane fraction
In short: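 Agonism measured as [35S]GTPγS binding, read by GF/C filtration and scintillation counting after 120 min at room temperature, using human Y2 membranes at 1 μg protein/mL in pH 7.4 Tris/MgCl2/NaCl/GDP buffer. Compound serially diluted 100 μM–1 nM; EC50 normalized to PYY(3-36) (ratio = compound/PYY).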

| RBA IC50 Ratio (human Y2 receptor [1]) | GBA EC50 Ratio (human Y2 receptor [2]) | Substance | food intake suppression rate (%) (male C57EL/6J mice) |
| --- | --- | --- | --- |
| 0.81 | 1.1 | Ac-[Aib24,28,31, Pya(4)26, Cha27,36, Lys30]-PYY(23-36) (Ac-S[Aib]R[4Pal][Cha][Aib]NK[Aib]TRQR[Cha]-NH2; SMILES CC(=O)N[C@@H](CO)C(=O)NC(C)(C)C(=O)N[C@@H](CCCNC(=N)N)C(=O)N[C@@H](Cc1ccncc1)C(=O)N[C@@H](CC1CCCCC1)C(=O)NC(C)(C)C(=O)N[C@@H](CC(N)=O)C(=O)N[C@@H](CCCCN)C(=O)NC(C)(C)C(=O)N[C@H](C(=O)N[C@@H](CCCNC(=N)N)C(=O)N[C@@H](CCC(N)=O)C(=O)N[C@@H](CCCNC(=N)N)C(=O)N[C@@H](CC1CCCCC1)C(N)=O)[C@@H](C)O) [compound No. 240] | 36 |
| 0.97 | 1.5 | Ac-[D-Hyp24, Iva25, Pya(4)26, Cha27,36, Leu(Me)28, Lys30, Aib31]-PYY(23-36) (Ac-S[dHyp][Iva][4Pal][Cha][tBuAla]NK[Aib]TRQR[Cha]-NH2; SMILES CC[C@](C)(NC(=O)[C@H]1C[C@H](O)CN1C(=O)[C@H](CO)NC(C)=O)C(=O)N[C@@H](Cc1ccncc1)C(=O)N[C@@H](CC1CCCCC1)C(=O)N[C@@H](CC(C)(C)C)C(=O)N[C@@H](CC(N)=O)C(=O)N[C@@H](CCCCN)C(=O)NC(C)(C)C(=O)N[C@H](C(=O)N[C@@H](CCCNC(=N)N)C(=O)N[C@@H](CCC(N)=O)C(=O)N[C@@H](CCCNC(=N)N)C(=O)N[C@@H](CC1CCCCC1)C(N)=O)[C@@H](C)O) [compound No. 335] | 27 |
| 0.96 | 1.2 | 3-Carboxypropionyl-[D-Pro24, Pya(4)26, Cha27,36, Aib28,31, Lys30]-PYY(23-36) (Suc-S[dP]R[4Pal][Cha][Aib]NK[Aib]TRQR[Cha]-NH2; SMILES C[C@@H](O)[C@H](NC(=O)C(C)(C)NC(=O)[C@H](CCCCN)NC(=O)[C@H](CC(N)=O)NC(=O)C(C)(C)NC(=O)[C@H](CC1CCCCC1)NC(=O)[C@H](Cc1ccncc1)NC(=O)[C@H](CCCNC(=N)N)NC(=O)[C@H]1CCCN1C(=O)[C@H](CO)NC(=O)CCC(=O)O)C(=O)N[C@@H](CCCNC(=N)N)C(=O)N[C@@H](CCC(N)=O)C(=O)N[C@@H](CCCNC(=N)N)C(=O)N[C@@H](CC1CCCCC1)C(N)=O) [compound No. 217] | 28 |
| 2 | 1.9 | 3-Carboxypropionyl-[Gln23, D-Pro24, Pya(4)26, Cha27,36, Aib28,31, Lys30]-PYY(23-36) (Suc-Q[dP]R[4Pal][Cha][Aib]NK[Aib]TRQR[Cha]-NH2; SMILES C[C@@H](O)[C@H](NC(=O)C(C)(C)NC(=O)[C@H](CCCCN)NC(=O)[C@H](CC(N)=O)NC(=O)C(C)(C)NC(=O)[C@H](CC1CCCCC1)NC(=O)[C@H](Cc1ccncc1)NC(=O)[C@H](CCCNC(=N)N)NC(=O)[C@H]1CCCN1C(=O)[C@H](CCC(N)=O)NC(=O)CCC(=O)O)C(=O)N[C@@H](CCCNC(=N)N)C(=O)N[C@@H](CCC(N)=O)C(=O)N[C@@H](CCCNC(=N)N)C(=O)N[C@@H](CC1CCCCC1)C(N)=O) [compound No. 218] | 27 |

The next lines start with the substance.

| Substance | RBA IC50 Ratio (human Y2 receptor [1]) | GBA EC50 Ratio (human Y2 receptor [2]) | food intake suppression rate (%) (male C57EL/6J mice) |
| --- | --- | --- | --- |
| Ac-[D-Pro24, Pya(4)26, Cha27,36, Aib28,31, Ala(4-pip)30]-PYY(23-36) (Ac-S[dP]R[4Pal][Cha][Aib]N[Ala(piperidin-4-yl)][Aib]TRQR[Cha]-NH2; SMILES CC(=O)N[C@@H](CO)C(=O)N1CCC[C@@H]1C(=O)N[C@@H](CCCNC(=N)N)C(=O)N[C@@H](Cc1ccncc1)C(=O)N[C@@H](CC1CCCCC1)C(=O)NC(C)(C)C(=O)N[C@@H](CC(N)=O)C(=O)N[C@@H](CC1CCNCC1)C(=O)NC(C)(C)C(=O)N[C@H](C(=O)N[C@@H](CCCNC(=N)N)C(=O)N[C@@H](CCC(N)=O)C(=O)N[C@@H](CCCNC(=N)N)C(=O)N[C@@H](CC1CCCCC1)C(N)=O)[C@@H](C)O) [compound No. 313] | 0.72 | 0.8 | 23 |
| Ac-[D-Pro24, Arg(Me)25,30, Pya(4)26, Cha27,36, Aib28,31]-PYY(23-36) (Ac-S[dP][Arg(Me)][4Pal][Cha][Aib]N[Arg(Me)][Aib]TRQR[Cha]-NH2; SMILES CNC(=N)NCCC[C@H](NC(=O)[C@H](CC(N)=O)NC(=O)C(C)(C)NC(=O)[C@H](CC1CCCCC1)NC(=O)[C@H](Cc1ccncc1)NC(=O)[C@H](CCCNC(=N)NC)NC(=O)[C@H]1CCCN1C(=O)[C@H](CO)NC(C)=O)C(=O)NC(C)(C)C(=O)N[C@H](C(=O)N[C@@H](CCCNC(=N)N)C(=O)N[C@@H](CCC(N)=O)C(=O)N[C@@H](CCCNC(=N)N)C(=O)N[C@@H](CC1CCCCC1)C(N)=O)[C@@H](C)O) [compound No. 315] | 1.5 | 1.5 | 45 |
| [(1S)-1-Carboxy-3-methylbutyl]carbamoyl-[Glu23, D-Pro24, Pya(4)26, Cha27,36, Aib28,31, Lys30]-PYY(23-36) (X4-E[dP]R[4Pal][Cha][Aib]NK[Aib]TRQR[Cha]-NH2; SMILES CC(C)C[C@H](NC(=O)N[C@@H](CCC(=O)O)C(=O)N1CCC[C@@H]1C(=O)N[C@@H](CCCNC(=N)N)C(=O)N[C@@H](Cc1ccncc1)C(=O)N[C@@H](CC1CCCCC1)C(=O)NC(C)(C)C(=O)N[C@@H](CC(N)=O)C(=O)N[C@@H](CCCCN)C(=O)NC(C)(C)C(=O)N[C@H](C(=O)N[C@@H](CCCNC(=N)N)C(=O)N[C@@H](CCC(N)=O)C(=O)N[C@@H](CCCNC(=N)N)C(=O)N[C@@H](CC1CCCCC1)C(N)=O)[C@@H](C)O)C(=O)O) [compound No. 283] | 2.2 | 2.5 | 18 |
| 4-Pyridinecarbonyl-[D-Hyp24, Iva25, Pya(4)26, Cha27,36, Leu(Me)28, Lys30, Aib31]-PYY(23-36) (Isonicotinoyl-S[dHyp][Iva][4Pal][Cha][tBuAla]NK[Aib]TRQR[Cha]-NH2; SMILES CC[C@](C)(NC(=O)[C@H]1C[C@H](O)CN1C(=O)[C@H](CO)NC(=O)c1ccncc1)C(=O)N[C@@H](Cc1ccncc1)C(=O)N[C@@H](CC1CCCCC1)C(=O)N[C@@H](CC(C)(C)C)C(=O)N[C@@H](CC(N)=O)C(=O)N[C@@H](CCCCN)C(=O)NC(C)(C)C(=O)N[C@H](C(=O)N[C@@H](CCCNC(=N)N)C(=O)N[C@@H](CCC(N)=O)C(=O)N[C@@H](CCCNC(=N)N)C(=O)N[C@@H](CC1CCCCC1)C(N)=O)[C@@H](C)O) [compound No. 333] | 0.93 | 1.6 | 28 |
| Ac-[D-Pro24, Abu26, Cha27,36, Aib28,31, Lys30]-PYY(23-36) (Ac-S[dP]R[Abu][Cha][Aib]NK[Aib]TRQR[Cha]-NH2; SMILES CC[C@H](NC(=O)[C@H](CCCNC(=N)N)NC(=O)[C@H]1CCCN1C(=O)[C@H](CO)NC(C)=O)C(=O)N[C@@H](CC1CCCCC1)C(=O)NC(C)(C)C(=O)N[C@@H](CC(N)=O)C(=O)N[C@@H](CCCCN)C(=O)NC(C)(C)C(=O)N[C@H](C(=O)N[C@@H](CCCNC(=N)N)C(=O)N[C@@H](CCC(N)=O)C(=O)N[C@@H](CCCNC(=N)N)C(=O)N[C@@H](CC1CCCCC1)C(N)=O)[C@@H](C)O) [compound No. 320] | 2.3 | 0.98 | 18 |
| (Carboxymethyl)carbamoyl-[D-Pro24, Pya(4)26, Cha27,36, Aib28,31, Lys30]-PYY(23-36) ({(carboxymethyl)carbamoyl}-S[dP]R[4Pal][Cha][Aib]NK[Aib]TRQR[Cha]-NH2; ends and bridges not checked) [compound No. 287] | 1.2 | 1.2 | 42 |
